Assay results: PMC2756588

T1: Abp1, P15891
T1 sequence (P15891 535-592, looked up): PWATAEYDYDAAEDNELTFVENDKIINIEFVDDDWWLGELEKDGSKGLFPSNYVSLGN

T2: Bbc1, P47068
T2 sequence (P47068 1-78, looked up): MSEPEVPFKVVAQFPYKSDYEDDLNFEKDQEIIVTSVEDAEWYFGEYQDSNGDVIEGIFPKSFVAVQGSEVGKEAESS

T3: Boi1, P38041
T3 sequence (P38041 1-86, looked up): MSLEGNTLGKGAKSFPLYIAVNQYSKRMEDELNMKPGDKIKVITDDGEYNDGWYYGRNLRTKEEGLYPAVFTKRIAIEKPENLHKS

T4: Boi2, P39969
T4 sequence (P39969 32-116, looked up): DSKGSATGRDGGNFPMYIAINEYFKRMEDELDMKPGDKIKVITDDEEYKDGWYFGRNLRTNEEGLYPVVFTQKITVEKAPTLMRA

T5: Bud14, P27637
T5 sequence (P27637 247-328, looked up): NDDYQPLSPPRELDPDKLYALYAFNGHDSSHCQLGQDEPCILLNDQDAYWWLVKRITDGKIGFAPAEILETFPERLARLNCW

T6: Bzz1-1, P38822
T6 sequence (P38822 478-572, looked up): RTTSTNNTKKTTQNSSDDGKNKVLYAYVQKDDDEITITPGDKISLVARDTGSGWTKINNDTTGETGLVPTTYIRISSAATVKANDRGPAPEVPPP

T7: Bzz1-2, P38822
T7 sequence (P38822 568-633, looked up): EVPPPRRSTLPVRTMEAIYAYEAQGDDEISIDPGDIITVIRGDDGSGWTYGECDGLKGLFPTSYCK

T8: Cdc25, P04821
T8 sequence (P04821 50-136, looked up): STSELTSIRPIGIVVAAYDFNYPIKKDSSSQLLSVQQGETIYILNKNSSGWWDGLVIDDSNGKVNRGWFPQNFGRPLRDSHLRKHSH

T9: Cyk3, Q07533
T9 sequence (Q07533 1-83, looked up): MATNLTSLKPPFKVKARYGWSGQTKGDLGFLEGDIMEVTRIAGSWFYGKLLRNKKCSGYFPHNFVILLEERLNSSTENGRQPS

T10: Fus1, P11710
T10 sequence (P11710 432-512, looked up): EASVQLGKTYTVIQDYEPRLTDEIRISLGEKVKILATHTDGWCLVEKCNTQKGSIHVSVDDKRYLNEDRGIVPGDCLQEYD

T11: Hof1, Q05080
T11 sequence (Q05080 590-669, looked up): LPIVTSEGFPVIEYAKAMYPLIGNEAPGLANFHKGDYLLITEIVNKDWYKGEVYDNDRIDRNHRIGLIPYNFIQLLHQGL

T12: Hse1, P38753
T12 sequence (P38753 208-285, looked up): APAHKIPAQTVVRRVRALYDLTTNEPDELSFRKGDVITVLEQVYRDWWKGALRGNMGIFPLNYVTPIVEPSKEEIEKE

T13: Lsb1, P53281
T13 sequence (P53281 45-122, looked up): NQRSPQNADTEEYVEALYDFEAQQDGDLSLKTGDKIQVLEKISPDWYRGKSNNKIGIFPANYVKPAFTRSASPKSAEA

T14: Lsb3, P43603
T14 sequence (P43603 385-451, looked up): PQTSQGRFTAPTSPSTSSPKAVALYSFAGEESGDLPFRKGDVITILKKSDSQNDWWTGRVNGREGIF

T15: Lsb4, P32793
T15 sequence (P32793 402-468, looked up): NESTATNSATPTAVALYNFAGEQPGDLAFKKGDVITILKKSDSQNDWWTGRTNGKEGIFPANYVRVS

T16: Myo5, Q04439
T16 sequence (Q04439 1072-1160, looked up): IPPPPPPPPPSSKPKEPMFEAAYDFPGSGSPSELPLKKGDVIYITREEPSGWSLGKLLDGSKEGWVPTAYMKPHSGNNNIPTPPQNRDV

T17: Nbp2, Q12163
T17 sequence (Q12163 103-180, looked up): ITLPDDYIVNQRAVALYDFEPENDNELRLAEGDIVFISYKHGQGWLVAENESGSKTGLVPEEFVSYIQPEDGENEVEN

T18: Pex13, P80667
T18 sequence (P80667 295-386, looked up): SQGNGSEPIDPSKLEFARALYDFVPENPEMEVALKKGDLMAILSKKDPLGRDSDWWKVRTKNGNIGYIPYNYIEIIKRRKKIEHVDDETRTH

T19: Pin3, Q06449
T19 sequence (Q06449 53-122, looked up): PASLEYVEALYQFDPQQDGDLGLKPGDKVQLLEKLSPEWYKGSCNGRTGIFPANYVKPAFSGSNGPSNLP

T20: Sla1-2, P32790
T20 sequence (P32790 60-140, looked up): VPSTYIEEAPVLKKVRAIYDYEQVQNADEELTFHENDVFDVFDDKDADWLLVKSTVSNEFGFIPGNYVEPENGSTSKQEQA

T21: Sla1-3, P32790
T21 sequence (P32790 344-424, looked up): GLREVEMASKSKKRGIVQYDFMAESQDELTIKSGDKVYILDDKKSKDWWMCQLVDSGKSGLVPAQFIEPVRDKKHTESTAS


Columns and labels:
Assay in all cases: SPOT array
Abp1, P15891 = target: T1, Abp1, P15891; settings: median of control spots 935
Bbc1, P47068 = target: T2, Bbc1, P47068; settings: median of control spots 796
Bem1-1, P29366 = settings: median of control spots 4282
Bem1-2, P29366 = settings: median of control spots 4347
Boi1, P38041 = target: T3, Boi1, P38041; settings: median of control spots 1162
Boi2, P39969 = target: T4, Boi2, P39969; settings: median of control spots 1161
Bud14, P27637 = target: T5, Bud14, P27637; settings: median of control spots 956
Bzz1-1, P38822 = target: T6, Bzz1-1, P38822; settings: median of control spots 4446
Bzz1-2, P38822 = target: T7, Bzz1-2, P38822; settings: median of control spots 4538
Cdc25, P04821 = target: T8, Cdc25, P04821; settings: median of control spots 969
Cyk3, Q07533 = target: T9, Cyk3, Q07533; settings: median of control spots 1451
Fus1, P11710 = target: T10, Fus1, P11710; settings: median of control spots 1200
GST = settings: median of control spots 978
Hof1, Q05080 = target: T11, Hof1, Q05080; settings: median of control spots 4086
Hse1, P38753 = target: T12, Hse1, P38753; settings: median of control spots 1727
Lsb1, P53281 = target: T13, Lsb1, P53281; settings: median of control spots 388
Lsb3, P43603 = target: T14, Lsb3, P43603; settings: median of control spots 406
Lsb4, P32793 = target: T15, Lsb4, P32793; settings: median of control spots 397
Myo3, P36006 = settings: median of control spots 468
Myo5, Q04439 = target: T16, Myo5, Q04439; settings: median of control spots 471
Nbp2, Q12163 = target: T17, Nbp2, Q12163; settings: median of control spots 357
Pex13, P80667 = target: T18, Pex13, P80667; settings: median of control spots 1341
Pin3, Q06449 = target: T19, Pin3, Q06449; settings: median of control spots 2171
Rvs167, P39743 = settings: median of control spots 2707
Sho1, P40073 = settings: median of control spots 1148
Sla1-2, P32790 = target: T20, Sla1-2, P32790; settings: median of control spots 712
Sla1-3, P32790 = target: T21, Sla1-3, P32790; settings: median of control spots 5475

Sequence of Bem1-2, P29366 (P29366 139-227): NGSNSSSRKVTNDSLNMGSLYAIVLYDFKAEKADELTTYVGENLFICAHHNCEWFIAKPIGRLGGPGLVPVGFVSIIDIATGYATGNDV
Sequence of Bem1-1, P29366 (P29366 55-141): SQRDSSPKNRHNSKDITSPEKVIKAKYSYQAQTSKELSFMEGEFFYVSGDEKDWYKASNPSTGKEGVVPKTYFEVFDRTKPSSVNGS
Sequence of Rvs167, P39743 (P39743 419-482): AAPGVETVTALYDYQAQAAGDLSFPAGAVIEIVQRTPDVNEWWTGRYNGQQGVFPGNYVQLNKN
Sequence of Sho1, P40073 (P40073 287-367): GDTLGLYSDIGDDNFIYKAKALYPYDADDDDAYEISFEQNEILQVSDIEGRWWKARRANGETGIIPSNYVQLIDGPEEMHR

Binder	SPOT intensity (Abp1, P15891)	SPOT intensity (Bbc1, P47068)	SPOT intensity (Bem1-1, P29366)	SPOT intensity (Bem1-2, P29366)	SPOT intensity (Boi1, P38041)	SPOT intensity (Boi2, P39969)	SPOT intensity (Bud14, P27637)	SPOT intensity (Bzz1-1, P38822)	SPOT intensity (Bzz1-2, P38822)	SPOT intensity (Cdc25, P04821)	SPOT intensity (Cyk3, Q07533)	SPOT intensity (Fus1, P11710)	SPOT intensity (GST)	SPOT intensity (Hof1, Q05080)	SPOT intensity (Hse1, P38753)	SPOT intensity (Lsb1, P53281)	SPOT intensity (Lsb3, P43603)	SPOT intensity (Lsb4, P32793)	SPOT intensity (Myo3, P36006)	SPOT intensity (Myo5, Q04439)	further results
ANNQGPPNLPARDKS	0	0	0	0	4	0	0	2	0	0	0	0	1	0	0	461	478	642	0	0	SPOT intensity (Nbp2, Q12163): 0; SPOT intensity (Pex13, P80667): 229; SPOT intensity (Pin3, Q06449): 0; SPOT intensity (Rvs167, P39743): 3320; SPOT intensity (Sho1, P40073): 0; SPOT intensity (Sla1-2, P32790): 1; SPOT intensity (Sla1-3, P32790): 0
EVTPKVPERPSRRKT	156	1070	0	13	0	2	3	1	1	10	1	0	0	28	245	824	271	317	0	0	SPOT intensity (Nbp2, Q12163): 0; SPOT intensity (Pex13, P80667): 171; SPOT intensity (Pin3, Q06449): 25; SPOT intensity (Rvs167, P39743): 129; SPOT intensity (Sho1, P40073): 23; SPOT intensity (Sla1-2, P32790): 0; SPOT intensity (Sla1-3, P32790): 15
TPTSGPPLLPPRNTM	25	0	0	0	2	0	0	0	0	0	1	1	0	3	4	456	345	356	97	45	SPOT intensity (Nbp2, Q12163): 0; SPOT intensity (Pex13, P80667): 813; SPOT intensity (Pin3, Q06449): 66; SPOT intensity (Rvs167, P39743): 2940; SPOT intensity (Sho1, P40073): 21; SPOT intensity (Sla1-2, P32790): 1; SPOT intensity (Sla1-3, P32790): 0
VAPPPLPNRQLPNLD	0	0	2	0	0	0	0	2	0	0	2	0	0	1330	0	1380	743	813	112	59	SPOT intensity (Nbp2, Q12163): 0; SPOT intensity (Pex13, P80667): 563; SPOT intensity (Pin3, Q06449): 5; SPOT intensity (Rvs167, P39743): 5720; SPOT intensity (Sho1, P40073): 0; SPOT intensity (Sla1-2, P32790): 0; SPOT intensity (Sla1-3, P32790): 0
